The results in this text go back to doi:10.1101/2025.04.11.648320 (bioRxiv, 2025).

The data set concerns the molecule itself. The data set can be described thus: SDS-PAGE with immunoblot. For orientation: In western blotting, separated proteins are transferred to a membrane and probed.

Where “and” joins values, the source holds several entries; their conditions need not be identical. Identical values can stand only once.

B1: HIR2-HA expressed in Nicotiana benthamiana (natural protein, Arabidopsis thaliana, UniProt Q9SRH6 1-285, looked up)
chain: MGNLFCCVLVKQSDVAVKERFGKFQKVLNPGLQFVPWVIGDYVAGTLTLRLQQLDVQCETKTKDNVFVTVVASIQYRVLADKASDAFYRLSNPTTQIKAYVFDVIRACVPKLNLDDVFEQKNEIAKSVEEELDKAMTAYGYEILQTLIIDIEPDQQVKRAMNEINAAARMRVAASEKAEAEKIIQIKRAEGEAESKYLSGLGIARQRQAIVDGLRDSVLGFAGNVPGTSAKDVLDMVMMTQYFDTMRDIGATSKSSAVFIPHGPGAVSDVAAQIRNGLLQANNAS
One may read the stoichiometry N as the number of molecules, sites or subunits per partner or assembly. B1: the “stoichiometry N” value was 2 and 4 and 6.
